This test concerns the target T1, Qc-SNARE Vam7 (wild type, naturally soluble) (S. cerevisiae, UniProt P32912 1-316).
T1 sequence (looked up): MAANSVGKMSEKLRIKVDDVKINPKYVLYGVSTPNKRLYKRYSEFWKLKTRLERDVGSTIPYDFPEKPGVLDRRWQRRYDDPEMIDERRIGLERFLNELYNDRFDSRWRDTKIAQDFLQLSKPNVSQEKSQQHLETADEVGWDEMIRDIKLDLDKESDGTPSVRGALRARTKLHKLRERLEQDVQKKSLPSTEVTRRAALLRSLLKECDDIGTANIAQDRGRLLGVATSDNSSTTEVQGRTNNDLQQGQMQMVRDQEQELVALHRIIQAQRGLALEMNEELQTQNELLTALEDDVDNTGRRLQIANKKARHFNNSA
The test is described as follows: co-flotation with proteoliposomes.

This is an account of results in PMC5385945 (Molecular Biology of the Cell, 2017).

B1: Rab GTPase Ypt7, GTP-loaded, bound to proteoliposomes (natural protein, S. cerevisiae, UniProt P32939 1-208, looked up)
chain: MSSRKKNILKVIILGDSGVGKTSLMHRYVNDKYSQQYKATIGADFLTKEVTVDGDKVATMQVWDTAGQERFQSLGVAFYRGADCCVLVYDVTNASSFENIKSWRDEFLVHANVNSPETFPFVILGNKIDAEESKKIVSEKSAQELAKSLGDIPLFLTSAKNAINVDTAFEEIARSALQQNQADTEAFEDDYNDAINIRLDGENNSCSC
Turning to B1, the binding result is “binds”.
